Key:
[1] = target: Salmonella enterica serovar Montevideo DpdB, His6 tag removed (Salmonella enterica subsp. enterica serotype Montevideo); assay: SEC
[2] = target: Salmonella enterica serovar Montevideo DpdB, His6-tagged (Salmonella enterica subsp. enterica serotype Montevideo); assay: SEC-SAXS + SEC-MALS
DpdA D95A = target: T1, DpdA D95A (Salmonella enterica subsp. enterica …, UniProt P0DW33 1-416, D95A); assay: SEC-SAXS/MALS
T1 sequence: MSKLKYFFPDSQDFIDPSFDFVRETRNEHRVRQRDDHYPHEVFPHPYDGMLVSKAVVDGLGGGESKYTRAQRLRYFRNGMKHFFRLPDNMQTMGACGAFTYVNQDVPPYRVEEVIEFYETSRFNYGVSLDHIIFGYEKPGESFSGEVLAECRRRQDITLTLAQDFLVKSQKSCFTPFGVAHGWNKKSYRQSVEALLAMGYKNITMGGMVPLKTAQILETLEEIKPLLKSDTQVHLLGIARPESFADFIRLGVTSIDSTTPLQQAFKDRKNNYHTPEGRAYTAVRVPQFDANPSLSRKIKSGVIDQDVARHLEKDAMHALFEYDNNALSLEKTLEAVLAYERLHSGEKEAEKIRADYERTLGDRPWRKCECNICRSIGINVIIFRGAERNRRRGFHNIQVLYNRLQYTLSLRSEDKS

DpdA wild type = target: T2, DpdA wild type (Salmonella enterica subsp. enterica …, UniProt P0DW33 1-416); assay: EMSA
T2 sequence: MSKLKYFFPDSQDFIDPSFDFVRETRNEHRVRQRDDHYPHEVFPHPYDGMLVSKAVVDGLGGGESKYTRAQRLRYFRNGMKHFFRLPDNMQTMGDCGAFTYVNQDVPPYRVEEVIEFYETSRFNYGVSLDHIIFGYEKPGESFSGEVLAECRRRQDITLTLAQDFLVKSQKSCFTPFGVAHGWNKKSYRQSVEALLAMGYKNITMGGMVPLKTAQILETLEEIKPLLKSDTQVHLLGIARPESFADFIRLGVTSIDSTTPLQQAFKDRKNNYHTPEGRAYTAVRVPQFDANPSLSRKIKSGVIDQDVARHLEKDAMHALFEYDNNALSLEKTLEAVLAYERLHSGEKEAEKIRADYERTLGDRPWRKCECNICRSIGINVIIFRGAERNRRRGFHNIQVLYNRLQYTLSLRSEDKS

DpdA F265A = target: T3, DpdA F265A (Salmonella enterica subsp. enterica …, UniProt P0DW33 1-416, F265A); assay: EMSA
T3 sequence: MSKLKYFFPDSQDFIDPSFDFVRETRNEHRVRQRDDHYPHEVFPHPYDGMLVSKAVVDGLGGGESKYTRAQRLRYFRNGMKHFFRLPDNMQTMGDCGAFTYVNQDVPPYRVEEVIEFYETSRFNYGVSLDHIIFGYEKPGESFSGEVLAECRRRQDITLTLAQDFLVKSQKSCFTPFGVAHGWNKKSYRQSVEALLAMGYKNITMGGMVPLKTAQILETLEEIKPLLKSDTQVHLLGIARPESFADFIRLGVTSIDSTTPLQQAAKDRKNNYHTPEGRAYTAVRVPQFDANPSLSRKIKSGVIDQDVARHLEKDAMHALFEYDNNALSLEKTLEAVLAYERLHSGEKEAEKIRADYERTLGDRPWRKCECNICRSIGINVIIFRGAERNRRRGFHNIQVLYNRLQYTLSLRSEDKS

Molecule: Salmonella enterica serovar Montevideo DpdB, His6 tag removed (enzyme)
- stoichiometry N [1]: 2

Molecule: Salmonella enterica serovar Montevideo DpdB, His6-tagged (enzyme)
- stoichiometry N [2]: 2

B1: 28 bp DNA duplex (28bpDuplexF/R) (dsDNA)
DNA 1: GGGGTTTTCGCCAGCTGGCGTTTTGGGG
DNA 2: CCCCAAAACGCCAGCTGGCGAAAACCCC
- binding result (DpdA D95A): binds

B2: 28 bp DNA duplex spiked with 1% 6-FAM-labeled strand (dsDNA)
DNA 1: GGGGTTTTCGCCAGCTGGCGTTTTGGGG
DNA 2: CCCCAAAACGCCAGCTGGCGAAAACCCC
- Kd (DpdA wild type): 3.4 ± 0.2 µM
- Kd (DpdA F265A): 2.3 ± 0.1 µM
